In paper PMC12830989, “Subcellular glycan-mannose receptor binding kinetics correlate with myeloid cell function” (Nature Communications, 2025):
sCy5 = sulfo-Cy5

Target: T1, mannose receptor (MR) on CHO-MR cells (Mus musculus, UniProt Q61830)
T1 construct: expressed in transfected cells; host or cells: CHO (CHO-MR overexpression line, gift of Luisa Martinez-Pomares)
T1 sequence (Q61830 20-1456): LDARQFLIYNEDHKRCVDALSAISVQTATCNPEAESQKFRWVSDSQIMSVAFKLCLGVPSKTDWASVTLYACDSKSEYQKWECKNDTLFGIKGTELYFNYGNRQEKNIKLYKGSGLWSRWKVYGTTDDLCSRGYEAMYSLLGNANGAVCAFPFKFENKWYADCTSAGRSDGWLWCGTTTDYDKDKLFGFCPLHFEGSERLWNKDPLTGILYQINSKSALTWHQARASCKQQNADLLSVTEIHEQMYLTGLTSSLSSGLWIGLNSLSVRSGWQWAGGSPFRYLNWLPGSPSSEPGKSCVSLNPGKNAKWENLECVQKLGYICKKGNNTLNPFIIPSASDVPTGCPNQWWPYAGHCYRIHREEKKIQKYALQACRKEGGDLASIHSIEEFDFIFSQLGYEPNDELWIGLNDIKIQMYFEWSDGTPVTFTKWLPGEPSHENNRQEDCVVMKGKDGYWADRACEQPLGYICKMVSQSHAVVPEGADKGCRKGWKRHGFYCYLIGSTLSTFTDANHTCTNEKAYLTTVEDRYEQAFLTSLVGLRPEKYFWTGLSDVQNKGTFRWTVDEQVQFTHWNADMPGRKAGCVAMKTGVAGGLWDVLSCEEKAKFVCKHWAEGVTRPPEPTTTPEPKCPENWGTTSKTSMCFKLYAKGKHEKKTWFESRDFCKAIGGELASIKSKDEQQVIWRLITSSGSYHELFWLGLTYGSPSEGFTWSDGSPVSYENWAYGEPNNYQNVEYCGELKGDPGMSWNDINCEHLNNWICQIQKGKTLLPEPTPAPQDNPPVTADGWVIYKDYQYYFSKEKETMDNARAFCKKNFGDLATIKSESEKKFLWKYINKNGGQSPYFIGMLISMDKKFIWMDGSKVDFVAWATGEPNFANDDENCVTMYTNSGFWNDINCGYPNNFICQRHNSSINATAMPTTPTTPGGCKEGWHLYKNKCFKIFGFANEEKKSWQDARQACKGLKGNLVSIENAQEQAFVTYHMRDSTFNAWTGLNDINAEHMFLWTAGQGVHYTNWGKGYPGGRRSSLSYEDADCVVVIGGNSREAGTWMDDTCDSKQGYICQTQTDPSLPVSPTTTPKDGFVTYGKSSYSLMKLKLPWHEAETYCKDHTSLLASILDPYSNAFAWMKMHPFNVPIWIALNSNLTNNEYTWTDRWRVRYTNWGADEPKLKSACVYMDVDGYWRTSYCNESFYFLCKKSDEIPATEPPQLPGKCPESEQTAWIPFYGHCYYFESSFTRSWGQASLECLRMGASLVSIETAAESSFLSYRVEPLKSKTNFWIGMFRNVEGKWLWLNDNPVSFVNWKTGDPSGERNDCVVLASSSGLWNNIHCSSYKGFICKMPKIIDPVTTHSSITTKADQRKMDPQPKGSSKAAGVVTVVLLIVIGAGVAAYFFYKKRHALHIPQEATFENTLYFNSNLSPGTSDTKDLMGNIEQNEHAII
Assay: Glyco-PAINT-APP single-molecule glycan binding on CHO-MR cells
Details: Suppl. Fig 9, glycan SLP, median
Experimental: Single molecule imaging was performed on a Nikon Ti2 N-STORM system equipped with TIRF module, Z piezo element, perfect focus system for axial drift correction and an OkoLab incubator with temperature and CO2 controller (37 °C and 5% CO2) for live-cell imaging. Recordings were acquired using the 647 nm excitation laser (160 mW, 1.9 kW/cm^2). Upon laser excitation, fluorescence was collected by a 100x 1.49 NA oil-immersion objective, passed through a quad-band dichroic mirror (97335 Nikon), and detected by a Hamamatsu ORCA Flash 4.0 CMOS camera with 160 nm pixel size. The signal was collected using the following settings: 512 × 512 pixel region, no binning, pixel depth 16-bit, exposure time 50 ms, live-cell observation and 2D-STORM (lens out), zoom 1x, lens x0.4, and for live-cell observation at 37 °C, the correction collar was set to position 8160.
5 x 10^4 CHO-MR or 1 x 10^5 WT, MR^−/− BMDC or BMDM were seeded in 8-well glass-bottomed microscopy slides (Ibidi, 80827) in complete medium. After equilibration in the microscope incubator, fluorescent glycan was added at 5 nM for CHO-MR and 10 nM for BMDC or BMDM experiments. Then, cells were brought into focus using brightfield illumination and 2000 frames (at 50 ms intervals) were recorded within a single field-of-view at 40–60% of maximum 647 nm laser power using TIRF illumination. For indicated experiments, Cytochalasin D (Focus Biomolecules) was added to a final concentration of 10 µM for 30 min prior to acquisition.
Processing of recordings using Glyco-PAINT-APP was performed as described in a step-by-step procedure in the Supplementary Software Manual in the Supplementary Information and accompanying Supplementary Videos 1 and 2. For the TrackMate processing, a batch file (Experiment Info.csv) containing the experiment metadata and tracking parameters was created. Threshold values were set to 5, 10 or 15 such that no more than 1.500.000 spots were detected. Recordings were then processed in TrackMate using the ‘Run TrackMate Batch’ plugin provided by the Glyco-PAINT-APP. Through this plugin, spot detection and tracking by TrackMate[70] was performed as indicated in the batch file using the Simple LAP tracker algorithm with a maximum frame gap of 3, a max linking distance of 0.6 μm and a gap closing max distance of 1.2 μm. Tracks with only two spots were discarded. For the parameter sensitivity analysis, each tracking or spot detection was varied as indicated, whilst the others were kept at aforementioned values (Basis scenario).
With the Glyco-PAINT-APP utility ‘Generate Squares’, a grid of squares was overlaid, and kinetic properties for each square were calculated. Default parameters for grid processing are (deviations are mentioned in figure captions): Nr of Squares in row 20, Minimum Tracks to Calculate Tau 20, Min allowable R Squared 0.1, Min Required Density Ratio 2, Maximum Allowable Variability 10 and Neighbour Mode Free.
For every recording, a background track count was calculated by averaging the track count of the 40 (10% of the total number of squares) least dense squares. Only squares for which the track count exceeded the Min Required Density Ratio of 2 were considered (and the remaining ignored as background). For each square, the variability was calculated and only squares for which the variability was less than the Maximum Allowable Variability of 10 were considered. For squares meeting both the Minimum Required Density Ratio and Maximum Allowable Variability criteria, and containing at least the Minimum Tracks to Calculate Tau kinetic parameters, including kon, koff and MSD were calculated as in Riera et al.[10], or copied from the TrackMate Tracks table output (for velocity, displacement, and track duration).

Substance | koff−1 (CHO-MR + CytD) [ms] | kon (CHO-MR + CytD) [evts μm−2 sec−1] | koff−1 (CHO-MR) [ms] | kon (CHO-MR) [evts μm−2 sec−1]
Ac-Lys(Man)-Gly-Lys(Man)-TEG-Asp-Glu-Val-Ser-Gly-Leu-Glu-Gln-Leu-Glu-Ser-Ile-Ile-Asn-Phe-Glu-Lys-Leu-Ala-Ala-Ala-Ala-Ala-Lys(sCy5)-NH2 ({Ac-K(Man)-Gly-K(Man)-TEG}-DEVSGLEQLESIINFEKLAAAAAK(sCy5)-NH2) [2 Mono(2), bivalent monomannosylated OVA SLP with sulfo-Cy5] | 85 | 8.2 | 91 | 6.2
Ac-Lys(Man)-Lys(Man)-Lys(Man)-Lys(Man)-Lys(Man)-Lys(Man)-TEG-Asp-Glu-Val-Ser-Gly-Leu-Glu-Gln-Leu-Glu-Ser-Ile-Ile-Asn-Phe-Glu-Lys-Leu-Ala-Ala-Ala-Ala-Ala-Lys(sCy5)-NH2 ({Ac-K(Man)-K(Man)-K(Man)-K(Man)-K(Man)-K(Man)-TEG}-DEVSGLEQLESIINFEKLAAAAAK(sCy5)-NH2) [6 Mono(3), hexavalent monomannosylated OVA SLP with sulfo-Cy5] | 115 | 8.9 | 117 | 5.2
Ac-Lys(Man)-TEG-Asp-Glu-Val-Ser-Gly-Leu-Glu-Gln-Leu-Glu-Ser-Ile-Ile-Asn-Phe-Glu-Lys-Leu-Ala-Ala-Ala-Ala-Ala-Lys(sCy5)-NH2 ({Ac-K(Man)-TEG}-DEVSGLEQLESIINFEKLAAAAAK(sCy5)-NH2) [1 Mono(1), monovalent monomannosylated OVA SLP with sulfo-Cy5] | 63 | 3.9 | 68 | 3.8
Ac-Lys(triMan)-Gly-Lys(triMan)-TEG-Asp-Glu-Val-Ser-Gly-Leu-Glu-Gln-Leu-Glu-Ser-Ile-Ile-Asn-Phe-Glu-Lys-Leu-Ala-Ala-Ala-Ala-Ala-Lys(sCy5)-NH2 (DEVSGLEQLESIINFEKLAAAAAK; two Lys(triMan), TEG, sulfo-Cy5, C-amide; printed: Asp-Glu-Val-Ser-Gly-Leu-Glu-Gln-Leu-Glu-Ser-Ile-Ile-Asn-Phe-Glu-Lys-Leu-Ala-Ala-Ala-Ala-Ala-Lys) [2 Tri(5), bivalent trimannosylated OVA SLP with sulfo-Cy5] | 108 | 4.6 | 117 | 5
Ac-Lys(triMan)-Lys(triMan)-Lys(triMan)-Lys(triMan)-Lys(triMan)-Lys(triMan)-TEG-Asp-Glu-Val-Ser-Gly-Leu-Glu-Gln-Leu-Glu-Ser-Ile-Ile-Asn-Phe-Glu-Lys-Leu-Ala-Ala-Ala-Ala-Ala-Lys(sCy5)-NH2 (DEVSGLEQLESIINFEKLAAAAAK; six Lys(triMan), TEG, sulfo-Cy5, C-amide; printed: Asp-Glu-Val-Ser-Gly-Leu-Glu-Gln-Leu-Glu-Ser-Ile-Ile-Asn-Phe-Glu-Lys-Leu-Ala-Ala-Ala-Ala-Ala-Lys) [6 Tri(6), hexavalent trimannosylated OVA SLP with sulfo-Cy5] | 85 | 4.8 | 101 | 6.2
Ac-Lys(triMan)-TEG-Asp-Glu-Val-Ser-Gly-Leu-Glu-Gln-Leu-Glu-Ser-Ile-Ile-Asn-Phe-Glu-Lys-Leu-Ala-Ala-Ala-Ala-Ala-Lys(sCy5)-NH2 (DEVSGLEQLESIINFEKLAAAAAK; Ac-Lys(triMan)-TEG, sulfo-Cy5, C-amide; printed: Asp-Glu-Val-Ser-Gly-Leu-Glu-Gln-Leu-Glu-Ser-Ile-Ile-Asn-Phe-Glu-Lys-Leu-Ala-Ala-Ala-Ala-Ala-Lys) [1 Tri(4), monovalent trimannosylated OVA SLP with sulfo-Cy5] | 144 | 7.1 | 79 | 2.8
